Experimental data as given in patent US11440969B2, “Use of human epididymis protein 4 (HE4) for assessing responsiveness of MUC 16-positive cancer treatment” (Genentech, Inc., priority 2016, dated 2022).

System: platinum-resistant ovarian cancer
Test: Clinical activity of anti-MUC16-TDC (RECIST v1.1) in ovarian cancer patients
Assay type: in vivo, human
Conditions: 1.0-5.6 mg/kg q3w
Method: This Phase I, multicenter, open-label, dose escalation study was designed to identify the recommended Phase II dose (RP2D) of DMUC4064A (anti-MUC16-TDC) in platinum-resistant ovarian cancer patients and unresectable pancreatic cancer patients. The study employed a traditional 3+3 dose escalation design to determine the maximum tolerated dose (MTD), and the patients were administered intravenous (IV) DMUC4064A (Genentech Inc.) 1.0-5.6 mg/kg every three weeks (q3w) to evaluate the safety, tolerability, and pharmacokinetics of DMUC4064A.
Ovarian cancer patients had advanced epithelial ovarian, primary peritoneal, or fallopian tube cancer that progressed or relapsed within 6 months after the most recent treatment with a platinum-containing chemotherapy regimen. […] Progression or relapse from prior platinum-based chemotherapy was documented by RECIST v1.1. Patients were allowed ≤2 prior chemotherapy regimens.
Treatment (using anti-MUC16-TDC) response rate was estimated for patients with disease that was measurable by RECIST guidelines. Patients were identified as having a partial response (PR), stable disease (SD), or progressive disease (PD) as measured by RECIST v1.1. Objective response is defined as a complete or partial response, as determined by investigator assessment and confirmed by repeat assessments ≥4 weeks after initial documentation. Duration of objective response was defined as the time from the initial complete or partial response to the time of disease progression or death.

[1] = end point of the clinical trial

B1: DMUC4064A (conjugate, chains of the INN, looked up)
VH: EVQLVESGGGLVQPGGSLRLSCAASGYSITNDYAWNWVRQAPGKGLEWVGYISYSGYTTYNPSLKSRFTISRDTSKNTLYLQMNSLRAEDTAVYYCARWTSGLDYWGQGTLVTVSS
VL: DIQMTQSPSSLSASVGDRVTITCKASDLIHNWLAWYQQKPGKAPKLLIYGATSLETGVPSRFSGSGSGTDFTLTISSLQPEDFATYYCQQYWTTPFTFGQGTKVEIK
modifications: vedotin payload (MMAE)
additional patients with a partial response at some point during the study: six
patients with progressive disease (conclusion of the study): ten
patients who maintained stable disease [1]: 23
patients with a partial response to treatment [1]: two
